{"source": "paper PMC12700550", "about": "“DLL4^+ neutrophils promote Notch1-mediated endothelial PANoptosis to exacerbate acute lung injury in sepsis” (The Journal of Clinical Investigation, 2025)", "molecules": {"B1": {"name": "eCIRP: extracellular cold-inducible RNA-binding protein; recombinant murine, produced in our laboratory (protein, UniProt P60824 1-172, looked up)", "Cold-inducible RNA-binding …": "MASDEGKLFVGGLSFDTNEQALEQVFSKYGQISEVVVVKDRETQRSRGFGFVTFENIDDAKDAMMAMNGKSVDGRQIRVDQAGKSSDNRSRGYRGGSAGGRGFFRGGRSRGRGFSRGGGDRGYGGGRFESRSGGYGGSRDYYASRSQGGSYGYRSSGGSYRDSYDSYATHNE"}}, "key": {"C57BL/6 mice, CLP sepsis": {"tested_on": "C57BL/6 mice, CLP sepsis", "assay": "Serum alanine aminotransferase (ALT), CLP mice", "format": "in vivo, mouse", "design": "serum ALT (Figure 6A): unit not given here", "settings": "20 h; for serum ALT (Figure 6A): 10 mg/kg NDI, individual mice", "experimental": "Sepsis was induced in mice by cecal ligation and puncture (CLP) as described previously ([45], [46]). Mice were anesthetized with isoflurane to a surgical plane and placed in a supine position. CLP was performed through a midline laparotomy. The abdomen was shaved and disinfected. Through a 2 cm midline incision, the cecum was exposed and then ligated with a 4-0 silk suture 1 cm proximal from the distal cecal extremity. […] A small amount of cecal content was extruded through both holes, and the ligated cecum was returned to the peritoneal cavity. The wound was closed in layers. […] A small amount of cecal content was extruded. […] Vehicle groups received an equivalent volume of PBS, while treatment groups received NDI 10 mg/kg in […] PBS via retro-orbital injection after CLP. This dose was chosen primarily on the basis of our laboratory’s prior experience, we have consistently used this dose in mouse CLP models with reproducible efficacy and without observable toxicity ([39], [44]). Sham-operated animals underwent a laparotomy without CLP. After closure, the mice received a subcutaneous injection of 0.5 mL of normal saline to overcome surgery-induced dehydration. […] All mice were subcutaneously injected with a single dose of 0.1 mg/kg buprenorphine after CLP. Serum levels of alanine aminotransferase, aspartate aminotransferase, and lactate dehydrogenase were determined using specific colorimetric enzymatic assays (Pointe Scientific Inc.) according to the manufacturer’s instructions."}, "[1]": {"tested_on": "DLL4 expression on WT BMDNs", "assay": "Frequency of DLL4^+ neutrophils (Ly6G^+DLL4^+), WT mouse BMDNs, flow cytometry", "format": "cell-based", "settings": "for percentage of DLL4^+ neutrophils (Figure 1C): eCIRP 1 μg/mL, WT BMDNs 1 × 10^6/mL", "excerpt": "Mice were anesthetized by 2% isoflurane inhalation, and the femora and tibiae were dissected. The bone marrow was flushed out with calcium- and magnesium-free HBSS using a 25-gauge needle into a Petri dish. Suspensions of cells were filtered through a 70 μm cell strainer (Corning), and bone marrow–derived neutrophils (BMDNs) were purified by negative selection using the EasySep mouse neutrophil enrichment kit (catalog 19762, STEMCELL Technologies). The purity of the sorted neutrophils was assessed by staining of the cells with APC-Ly6G antibody (clone 1A8, BioLegend) using a BD LSRFortessa flow cytometer (BD Biosciences).\nIn the time course experiments, BMDNs (1 × 10^6) were stimulated with eCIRP (1 μg/mL) for 2, 4, 6, and 12 hours. In the dose-response experiments, BMDNs (1 × 10^6) were treated with 0, 0.2, 0.5, or 1.0 μg/mL eCIRP for 12 hours. Single-cell suspensions were then stained with APC-conjugated anti–mouse Ly6G (clone 1A8, catalog 127614, BioLegend) and PE-conjugated anti-DLL4 (clone HMD4-1, catalog 130807, BioLegend), and analyzed by flow cytometry (BD LSRFortessa, BD Biosciences) to detect DLL4^+ neutrophils (Ly6G^+DLL4^+). Unstained cells were used to set voltages, and single-color controls were applied for compensation adjustment. Two hundred fifty microliters of whole blood obtained from sham, CLP, and PBS- or NDI-treated mice was taken into Falcon 15 mL conical tubes, and 5 mL red blood cell (RBC) lysis buffer (BD Biosciences) was added. After 1–2 minutes of incubation at room temperature, the samples were centrifuged at 300g for 10 minutes. Supernatants were aspirated, and the cell pellet was washed by suspension of the cells in 5 mL fluorescence-activated cell sorting (FACS) buffer containing 2% fetal bovine serum and centrifuged at 300g for 10 minutes. The supernatant was discarded, and the cell pellet was dissolved in […] FACS buffer. Lung tissues were finely diced using a sterile surgical blade and suspended in Ca^++- and Mg^++-free Hanks balanced salt solution (HBSS; Corning). Tissue digestion was performed in HBSS containing 100 U/mL of collagenase I (Worthington Biochemical) and 20 U/mL DNase I (Worthington Biochemical) at 37°C for 30 minutes with periodic shaking. Digested tissue fragments were crushed with a 10 mL syringe plunger and passed through a 70 μm cell strainer (Corning). Lysis of RBCs in lung cell suspensions was conducted using RBC lysis buffer (BD Biosciences). The isolated lung cells were counted using a microscope (Eclipse TS100, Nikon). To detect mouse DLL4^+ neutrophils, single-cell suspensions were stained with anti-mouse APC-Ly6G (clone 1A8, catalog 127614, BioLegend) and PE-DLL4 (clone HMD4-1, catalog 130807, BioLegend) and assessed for the detection of DLL4^+ neutrophils (Ly6G^+DLL4^+) by flow cytometry (BD LSRFortessa, BD Biosciences). Unstained cells were used to establish the flow cytometer voltage setting, and single-color positive controls were used to adjust the compensation. The acquisition was performed on 50,000 events using a BD LSRFortessa flow cytometer (BD Biosciences), and data were analyzed with FlowJo software (Tree Star). BMDNs were stimulated with eCIRP ([…]) for 2 hours. This time point was selected to maximize the viability and functionality of DLL4^+ neutrophils for downstream experiments, given their relatively short lifespan. After stimulation, cells were washed with PBS and resuspended in 1 mL FACS buffer, and DLL4^+ neutrophils (Ly6G^+DLL4^+) and DLL4^– neutrophils (Ly6G^+DLL4^–) were sorted by flow cytometry using a BD FACSAria IIu cell sorter (BD Biosciences)."}}, "note": "Values joined by “and” are separate entries in the source; they are usually repeats but may differ in a detail not shown here. Equal entries are not always repeated.", "data": [{"molecule": "ECAGSPCHNGGTCEDGI [NDI]", "values": [{"measurement": "effect on serum ALT", "setting": "C57BL/6 mice, CLP sepsis; DLL4^+ neutrophil-injected CLP mice, 10 mg/kg", "result": "significantly reduced the serum levels of hepatic and cell injury markers and proinflammatory cytokines"}, {"measurement": "serum ALT (Figure 6A)", "setting": "C57BL/6 mice, CLP sepsis; DLL4^+ neutrophils + CLP", "result": "41.99 and 15.47 and 55.25 and 44.642 and 25.194 and 38.454 and 50.83 and 38.896 and 29.172 and 10.94 and 28.288 and 3.978 and 26.078 and 2.21"}, {"measurement": "serum ALT (Figure 6A)", "setting": "C57BL/6 mice, CLP sepsis; DLL4^– neutrophils + CLP", "result": "37.57 and 15.028 and 26.52 and 77.35 and 30.94 and 22.1 and 12.818 and 10.608"}]}, {"molecule": "B1", "values": [{"measurement": "percentage of DLL4^+ neutrophils (Figure 1D)", "setting": "[1]; 0.2 μg/mL rmCIRP, 12 h, WT BMDNs, individual replicates", "result": "6.79% and 7.39% and 5.07% and 2.01% and 1.58% and 2.94%"}, {"measurement": "percentage of DLL4^+ neutrophils (Figure 1D)", "setting": "[1]; 0.5 μg/mL rmCIRP, 12 h, WT BMDNs, individual replicates", "result": "9.65% and 8% and 2.23% and 3.04% and 4.63% and 3.6%"}, {"measurement": "increase in DLL4^+ neutrophils compared with baseline", "setting": "[1]; 1 μg/mL eCIRP, 12 hours", "result": "greater than 10 fold"}, {"measurement": "percentage of DLL4^+ neutrophils (Figure 1D)", "setting": "[1]; 1 μg/mL rmCIRP, 12 h, WT BMDNs, individual replicates", "result": "9.46% and 10.2% and 10.3% and 9.59% and 14.64% and 11.2% and 19.6%"}, {"measurement": "frequency of DLL4^+ neutrophils (Figure 1E)", "setting": "[1]; WT BMDNs, 1 μg/mL eCIRP, 12 h, individual replicates", "result": "10.6% and 7.8% and 13.4% and 4.22% and 4.99%"}, {"measurement": "percentage of DLL4^+ neutrophils (Figure 1C)", "setting": "[1]; 2 h, individual replicates", "result": "2.37% and 2.69% and 2.61% and 1.38% and 2.29% and 2.02%"}, {"measurement": "percentage of DLL4^+ neutrophils (Figure 1C)", "setting": "[1]; 4 h, individual replicates", "result": "2.2% and 3.33% and 2.32% and 3.85% and 1.73% and 1.34%"}, {"measurement": "percentage of DLL4^+ neutrophils (Figure 1C)", "setting": "[1]; 6 h, individual replicates", "result": "5.6% and 3.69% and 4.86% and 3.28% and 2.75% and 2.78%"}, {"measurement": "percentage of DLL4^+ neutrophils (Figure 1C)", "setting": "[1]; 12 h, individual replicates", "result": "25.8% and 23.2% and 5.76% and 10.3% and 13.1% and 19.7%"}, {"measurement": "effect on frequency of DLL4^+ neutrophils", "setting": "[1]; mouse BMDNs", "result": "significantly increased the frequency (percentage) of DLL4^+ neutrophils in a time- and dose-dependent manner"}]}]}
